Experimental data from the supplement of paper PMC10567573.

B1: TFE3 (parent)
chain: ELPNIKREISETEAKALLKERQKK
B2: SMG5 (parent)
chain: TNPDLIIVCAQSSQSLWNRLSVLL

Variants of: B1
Assay: protein stability index of a GFP-peptide fusion (GPS, HEK-293T) (PSI 1-6); higher = more stable
Details: c terminus: a fixed tail appended
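Note: lentivirally expressed fusions sorted by FACS into six bins by GFP to DsRed ratio, PSI derived from sequencing read proportions per bin multiplied by bin number.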

Variant | protein stability index
T12V | 4.04
T12D | 4.56
T12Y | 4.15
T12Q | 4.67
T12E | 5.55
T12K | 3.85
T12F | 3.78
T12L | 4
T12G | 4.73
T12R | 4.08
T12N | 4.46
T12M | 4.26
T12S | 2.69
T12P | 4.73
T12C | 2.51
T12A | 2.86
T12H | 4.58
T12W | 3.31
T12I | 4.13
I5C | 3.53
I5Q | 4.38
I5S | 4.98
I5N | 4.22
I5K | 4.58
I5T | 4.7
I5G | 3.46

Variant | protein stability index
I5F | 4.05
I5Y | 4.3
I5V | 3.94
I5L | 3.34
I5M | 2.23
I5P | 4.91
I5E | 5.37
I5H | 4.61
I5A | 4.81
I5D | 5.33
I5R | 4.4
I5W | 3.93
I9C | 3.74
I9V | 3.64
I9M | 2.25
I9G | 4.67
I9N | 3.19
I9H | 5.21
I9Y | 4.34
I9T | 4.49
I9Q | 4.83
I9D | 5.15
I9W | 4.13
I9E | 5.1
I9R | 3.88
I9A | 4.71

Variant | protein stability index
I9P | 5.1
I9F | 4.51
I9L | 2.66
I9S | 4.68
I9K | 4.95
S10Y | 2.35
S10V | 3.62
S10A | 2.23
S10F | 2.65
S10D | 2.53
S10T | 2.59
S10W | 2.9
S10M | 2.12
S10N | 3
S10E | 2.15
S10L | 2.57
S10R | 2.91
S10C | 3.2
S10Q | 2.68
S10G | 3
S10I | 3.13
S10K | 3
S10P | 4.98
S10H | 2.82
E1F | 2.21
E1P | 4.81

Variant | protein stability index
E1C | 3.12
E1R | 3.51
E1H | 2.66
E1V | 3.57
E1W | 3.01
E1Y | 2.82
E1Q | 2.99
E1I | 3.59
E1N | 2.75
E1S | 2.87
E1D | 2.65
E1G | 4.65
E1A | 3.19
E1T | 3.6
E1L | 2.29
E1K | 3.13
E1M | 2.39
N4C | 2.32
N4F | 3.14
N4Q | 2.02
N4S | 3.23
N4E | 3.9
N4P | 3.76
N4A | 2.88
N4W | 3.35
N4V | 3.86

Variant | protein stability index
N4I | 3.85
N4K | 2.78
N4T | 3.33
N4D | 2.75
N4R | 2.34
N4M | 2.83
N4Y | 3.29
N4G | 3.62
N4H | 2.84
N4L | 3.34
E8R | 4.32
E8L | 3.6
E8V | 3.43
E8D | 2.69
E8F | 3.52
E8C | 3.4
E8T | 3.46
E8I | 3.39
E8Y | 3.68
E8P | 4.31
E8W | 2.21
E8S | 3.69
E8M | 3.32
E8A | 2.49
E8K | 4.06
E8Q | 3.34

Variant | protein stability index
E8G | 3.09
E8N | 3.46
E8H | 3.31
E11D | 2.45
E11P | 4.21
E11V | 2.43
E11Q | 3.29
E11M | 2.78
E11I | 3.05
E11W | 2.91
E11S | 3.61
E11T | 3.25
E11N | 2.99
E11H | 3.1
E11A | 2.89
E11Y | 3.16
E11F | 3.43
E11G | 3.45
E11C | 2.87
E11R | 2.5
E11L | 2.79
E11K | 3.48
P3W | 2.43
P3E | 3.17
P3I | 1.34
P3Q | 2.98

Variant | protein stability index
P3L | 2.02
P3T | 3.57
P3Y | 3.04
P3N | 4.13
P3A | 2.6
P3H | 2.57
P3G | 3.5
P3V | 2.32
P3S | 3.44
P3D | 2.89
P3M | 1.93
P3R | 3.75
P3C | 2.43
P3K | 3.82
P3F | 2.84
K6Q | 2.45
K6V | 2.24
K6I | 2.04
K6H | 2.49
K6F | 2.79
K6C | 2.33
K6P | 3.89
K6S | 2.5
K6Y | 2.65
K6W | 2.01
K6R | 2.02

Variant | protein stability index
K6T | 3.05
K6E | 4.11
K6G | 2.81
K6L | 2.83
K6N | 2.81
K6M | 2.75
K6D | 4.36
K6A | 2.95
R7C | 2.97
R7H | 3.27
R7S | 2.49
R7N | 2.58
R7P | 4.86
R7V | 2.46
R7K | 2.44
R7W | 2.84
R7T | 3.51
R7L | 2.68
R7D | 2.95
R7F | 2.44
R7I | 3.2
R7Q | 2.4
R7E | 2.46
R7G | 2.2
R7A | 2.55
R7M | 2.63

Variant | protein stability index
R7Y | 2.81
E13C | 2.74
E13A | 4.83
L2A | 4.75
L2T | 4.71
L2F | 4.29
L2C | 3.5
L2E | 5.33
L2M | 2.84
L2W | 3.96
L2N | 5.12
L2G | 5.23
L2S | 5.39
L2D | 5.49
L2Y | 4.18
L2P | 5.74
L2K | 5.08
L2H | 4.51
L2Q | 3.88
L2R | 3.94
L2V | 1.95
L2I | 2.19

Variants of: B2
Assay: as above
Details: c terminus: a fixed tail appended

Variant | protein stability index
L24D | 2.8
L24Y | 1.85
L24G | 2.84
L24M | 3.19
L24R | 1.93
L24Q | 1.92
L24W | 2.26
L24T | 2.64
L24E | 3.27
L24F | 2.86
L24V | 3.05
L24A | 2.73
L24N | 2.45
L24S | 1.38
L24H | 2.54
L24P | 1.38
S21V | 2.88
S21G | 3.14
S21T | 3.07
S21L | 2.07
S21W | 2.75
S21A | 3.16
S21P | 2.6
S21Q | 2.87
S21Y | 3.25
S21R | 2

Variant | protein stability index
S21H | 2.52
S21E | 3.57
S21N | 3.04
S21M | 1.58
S21K | 2.19
S21C | 2.21
S21I | 3.08
S21F | 3.03
L23P | 3.47
L23A | 1.84
L23F | 2.33
L23N | 3.27
L23G | 3.55
L23E | 2.75
L23D | 1.73
L23K | 1.99
L23S | 2.68
L23W | 2.85
L23C | 3.62
L23H | 3.59
L23V | 2.8
L23I | 2.27
L23R | 2.83
L20C | 2.88
L20E | 3.06
L20G | 2.45

Variant | protein stability index
L20D | 1.83
L20W | 3.72
L20S | 2.19
L20V | 1.7
L20N | 3.27
L20Y | 2.11
L20I | 2.41
L20M | 2.24
L20K | 2.77
L20P | 2.92
L20A | 2.15
L20T | 2.02
L20Q | 2.08
L20H | 1.7
L20F | 1.81
V22H | 1.84
V22E | 1.91
V22D | 2.03
V22M | 2.98
V22L | 3.21
V22I | 4.58
V22F | 2.52
V22S | 2.36
V22K | 2.17
V22N | 1.58
V22T | 2.99

Variant | protein stability index
V22A | 2
V22R | 2.23
V22W | 1.24
V22C | 3.03
V22G | 1.81
V22P | 2.62
V22Y | 1.91
V22Q | 1.65
R19L | 1.57
R19G | 3.61
R19I | 1.75
R19N | 5.11
R19D | 3.35
R19K | 2.5
R19V | 1.86
R19S | 2.06
R19M | 2.1
R19Y | 1.41
R19F | 1.84
R19T | 3.21
R19W | 2.23
R19P | 3.09
R19C | 2.09
R19H | 2.54
R19E | 3.19
R19Q | 2.95
